In US20170145113A1 (Genentech, published 2017):
Each block holds one binder with its values, some of them ahead of it.

What was measured:
[1] = biological target: T1, His-tagged human HtrA1 protease domain (human, UniProt Q92743 161-367); experiment: phage competition ELISA (Fab on phage, HtrA1 in solution)
T1 construct: His-tagged protease domain; also called huHtrA1-PD-His; huHtrA1-PD
Procedure: (§1) MAXISORP™ microliter plates were coated with human HtrA1-PD-His at 2 μg/ml in PBS for 2 h and then blocked with PBST buffer (0.5% BSA and 0.05% TWEEN®20 in PBS) for 1 h at room temperature. Phage purified from culture supernatants were incubated with serially-diluted human or murine HtrA1 in PBST buffer in a tissue-culture microtiter plate for 1 h, after which 80 μl of the mixture was transferred to human HtrA1-coated wells for 15 min to capture unbound phage. The plate was washed with PBT buffer (0.05% TWEEN®20 in PBS), and HRP-conjugated anti-M13 antibody (Amersham Pharmacia Biotech) was added (1:5000 in PBST buffer) for 40 min. The plate was washed with PBT buffer and developed by adding tetramethylbenzidine substrate (Kirkegaard and Perry Laboratories, Gaithersburg, Md.). The absorbance at 450 nm was plotted as a function of target concentration in solution to determine phage IC50.

[2] = biological target: T1, His-tagged human HtrA1 protease domain; experiment: SPR (BIACORE), Fab
Source text: (§2) To address W91 oxidation in HVR-L3, 2 variants (LC-W91Y and LC-W91L) were generated and produced as Fabs for BIACORE™ SPR binding analysis.
(§3) To determine the binding affinity of anti-HtrA1 Fabs by single-cycle kinetics, (SPR) measurement with a BIACORE™ T100 instrument was used. Briefly, a series S sensor chip CM5 was activated with 1-ethyl-3-(3-dimethylamino-propyl)carbodiimide hydrochloride (EDC) and N-hydroxysuccinimide (NHS) reagents according to the supplier's instructions, and streptavidin (Pierce) was coupled to achieve approximately 2500 response units (RU), followed by blocking un-reacted groups with 1 M ethanolamine.
(§4) For kinetics measurements, biotinylated human or murine HtrA1-PD-His was first injected at 10 μl/min flow rate to capture approximately 150 RU at 3 different flow cells (FC), except for FC1 (which served as a reference), and then 5-fold serial dilutions of anti-HtrA1 Fab in HBS-P buffer (0.01M HEPES pH 7.4, 0.15 M NaCl, 0.005% surfactant P20) from low (0.48 nM) to high (300 nM) were injected (flow rate: 30 μl/min) one after the other in the same cycle with no regeneration between injections. The sensorgram was recorded and subject to reference and buffer subtraction before evaluating by BIACORE™ T100 Evaluation Software (version 2.0). Association rates (kₒₙ) and dissociation rates (koff) were calculated using a simple one-to-one Langmuir binding model. The equilibrium dissociation constant (KD) was calculated as the ratio koff/kₒₙ.

[3] = biological target: T2, His-tagged recombinant murine HtrA1 protease domain (murine, UniProt Q9R118 156-367); experiment: SPR (BIACORE), Fab
T2 construct: His-tagged protease domain; also called muHtrA1-PD-His; muHtrA1-PD
Source text: as §2, §3, §4

[4] = biological target: T1, His-tagged human HtrA1 protease domain; experiment: BIACORE SPR, single-cycle kinetics; Fab analyte over captured human HtrA1
[5] = biological target: T1, His-tagged human HtrA1 protease domain; experiment: SPR (BIACORE), Fab; remark: listed apart in the source
[6] = biological target: T1, His-tagged human HtrA1 protease domain; experiment: BIACORE SPR, Fab analyte, Human HtrA1-PD (N=2)
[7] = biological target: T1, His-tagged human HtrA1 protease domain; experiment: BIACORE SPR analysis, Fab format
Procedure: (§5) To determine the binding affinity of selected Fab variants for HtrA1, SPR measurement with a BIACORE™ T200 instrument was performed. Briefly, a series S sensor chip CM5 was activated with 1-EDC and NHS reagents according to the supplier's instructions, and anti-His antibody was coupled to achieve 200-300 response units (RU), then following by blocking un-reacted groups with 1 M ethanolamine. For kinetics measurements, approximately 5 nM of huHtrA1-PD-His was first injected at 10 μl/min flow rate to capture approximately 100 RU at 2 different flow cells (FC), except for FC1 (which served as a reference). Next, 5-fold serial dilutions of Fab in HBS-P buffer (0.01M HEPES pH 7.4, 0.15M NaCl, 0.005% surfactant P20) from low (0.8 nM) to high (50 nM) were injected (flow rate: 30 μl/min). The binding responses on HtrA1 were corrected by subtracting of RU from a blank flow cell. The sensorgram was recorded and subject to reference and buffer subtraction before evaluating by BIACORE® T200 Evaluation Software (version 2.0). Association rates (kₒₙ) and dissociation rates (koff) were calculated using a simple one-to-one Langmuir binding model. The equilibrium dissociation constant (KD) was calculated as the ratio of koff/kₒₙ.

[8] = biological target: T1, His-tagged human HtrA1 protease domain; experiment: BIACORE T200 SPR; Fab analyte over huHtrA1-PD-His captured by anti-His antibody
Procedure: as §5

[9] = biological target: T1, His-tagged human HtrA1 protease domain; experiment: cell-based or functional assay
[10] = biological target: T2, His-tagged recombinant murine HtrA1 …; experiment: phage competition ELISA (Fab on phage, HtrA1 in solution)
Procedure: as §1

[11] = biological target: T1, His-tagged human HtrA1 protease domain; experiment: SPR (BIACORE T100), single-cycle kinetics; biotinylated HtrA1-PD-His on streptavidin, Fab injected
Source text: as §3, §4

[12] = biological target: T2, His-tagged recombinant murine HtrA1 …; experiment: as above
Source text: as §3, §4

T1 sequence (Q92743 other isoform, or with tags, fused parts or gaps limits assumed): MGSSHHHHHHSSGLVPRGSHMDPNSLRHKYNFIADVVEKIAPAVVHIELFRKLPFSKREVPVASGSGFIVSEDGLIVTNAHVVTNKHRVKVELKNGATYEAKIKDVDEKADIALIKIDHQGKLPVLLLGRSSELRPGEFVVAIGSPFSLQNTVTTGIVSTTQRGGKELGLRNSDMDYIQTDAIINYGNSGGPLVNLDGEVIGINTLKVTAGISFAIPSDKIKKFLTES

B1: h15H6.v1 HC-A67V variant (Fab, V domains shown)
VH: EVQLVQSGAEVKKPGASVKVSCKASGYTFTDSEMHWVRQAPGQGLEWIGGVDPETDGAAYNQKFKGRVTLTADTSTSTAYLELSSLRSEDTAVYYCTRGYDYDYALDYWGQGTLVTVSS
VL: DIQMTQSPSSLSASVGDRVTITCRASSSVNFIHWYQQKPGKAPKPWISATSNLASGVPSRFSGSGSGTDFTLTISSLQPEDFATYYCQQWSSNPWTFGQGTKVEIK
notes: built as h15H6.v1
binding result [1]: binds

B3: h15H6.v2 LC-N94S LC-P95 Fab (Fab, V domains shown)
VH: EVQLVQSGAEVKKPGASVKVSCKASGYTFTDSEMHWVRQAPGQGLEWIGGVDPETDGAAYNQKFKGRATITRDTSTSTAYLELSSLRSEDTAVYYCTRGYDYDYALDYWGQGTLVTVSS
VL: DIQMTQSPSSLSASVGDRVTITCRASSSVNFIHWYQQKPGKAPKPLISATSNLASGVPSRFSGSGSGTDFTLTISSLQPEDFATYYCQQWSSSPWTFGQGTKVEIK
notes: Produced as Fab; also called SP
Kd [4]: 520 pM
koff [4]: 0.00025 s⁻¹
kon [4]: 480000 M⁻¹ s⁻¹
fold reduction in binding affinity against h15H6.v2 [5]: ~2 fold

B5: h15H6.v1 HC-A71R variant (Fab, V domains shown)
VH: EVQLVQSGAEVKKPGASVKVSCKASGYTFTDSEMHWVRQAPGQGLEWIGGVDPETDGAAYNQKFKGRATLTRDTSTSTAYLELSSLRSEDTAVYYCTRGYDYDYALDYWGQGTLVTVSS
VL: DIQMTQSPSSLSASVGDRVTITCRASSSVNFIHWYQQKPGKAPKPWISATSNLASGVPSRFSGSGSGTDFTLTISSLQPEDFATYYCQQWSSNPWTFGQGTKVEIK
notes: built as h15H6.v1
binding result [1]: binds
binding result [10]: binds

B6: h15H6.v2 LC-N94Q LC-P95 Fab (Fab, V domains shown)
VH: EVQLVQSGAEVKKPGASVKVSCKASGYTFTDSEMHWVRQAPGQGLEWIGGVDPETDGAAYNQKFKGRATITRDTSTSTAYLELSSLRSEDTAVYYCTRGYDYDYALDYWGQGTLVTVSS
VL: DIQMTQSPSSLSASVGDRVTITCRASSSVNFIHWYQQKPGKAPKPLISATSNLASGVPSRFSGSGSGTDFTLTISSLQPEDFATYYCQQWSSQPWTFGQGTKVEIK
notes: Produced as Fab; also called QP
Kd [4]: 520 pM
koff [4]: 0.00029 s⁻¹
kon [4]: 560000 M⁻¹ s⁻¹
fold reduction in binding affinity against h15H6.v2 [5]: ~2 fold

B7: h15H6.v1 HC-T93A variant (Fab, V domains shown)
VH: EVQLVQSGAEVKKPGASVKVSCKASGYTFTDSEMHWVRQAPGQGLEWIGGVDPETDGAAYNQKFKGRATLTADTSTSTAYLELSSLRSEDTAVYYCARGYDYDYALDYWGQGTLVTVSS
VL: DIQMTQSPSSLSASVGDRVTITCRASSSVNFIHWYQQKPGKAPKPWISATSNLASGVPSRFSGSGSGTDFTLTISSLQPEDFATYYCQQWSSNPWTFGQGTKVEIK
notes: built as h15H6.v1
binding result [1]: binds

The remaining lines, values ahead:

Kd [2]: 10700 pM
koff [2]: 0.0016 s⁻¹
kon [2]: 150000 M⁻¹ s⁻¹
Kd [3]: 7600 pM
koff [3]: 0.00091 s⁻¹
kon [3]: 120000 M⁻¹ s⁻¹
B2: h15H6.v2 LC-W91L Fab (Fab, V domains shown)
VH: EVQLVQSGAEVKKPGASVKVSCKASGYTFTDSEMHWVRQAPGQGLEWIGGVDPETDGAAYNQKFKGRATITRDTSTSTAYLELSSLRSEDTAVYYCTRGYDYDYALDYWGQGTLVTVSS
VL: DIQMTQSPSSLSASVGDRVTITCRASSSVNFIHWYQQKPGKAPKPLISATSNLASGVPSRFSGSGSGTDFTLTISSLQPEDFATYYCQQLSSNPWTFGQGTKVEIK
notes: Produced as Fab

Kd [6]: 600 pM
koff [6]: 0.00021 s⁻¹
kon [6]: 350000 M⁻¹ s⁻¹
Kd [7]: 546 pM
koff [7]: 0.000172 s⁻¹
kon [7]: 315000 M⁻¹ s⁻¹
Kd [8]: 546 pM
koff [8]: 0.000172 s⁻¹
kon [8]: 315000 M⁻¹ s⁻¹
IC50 FRET (H2-Opt substrate cleavage) [9]: 410 pM
IC90 FRET (H2-Opt substrate cleavage) [9]: 2770 pM
Max inhibition (FRET H2-Opt assay) [9]: 77
B4: h15H6.v2.APEG Fab (Fab, name in Kabat numbering, V domains shown)
VH: EVQLVQSGAEVKKPGASVKVSCKASGYTFTDSEMHWVRQAPGQGLEWIGGVDPETEGAAYNQKFKGRATITRDTSTSTAYLELSSLRSEDTAVYYCTRGYDYDYALDYWGQGTLVTVSS
VL: DIQMTQSPSSLSASVGDRVTITCRASSSVNFIHWYQQKPGKAPKPLISATSNLASGVPSRFSGSGSGTDFTLTISSLQPEDFATYYCQQWSSAPWTFGQGTKVEIK
notes: also called h15H6.v3; LC-N94A LC-P95 HC-D55E HC-G56

Kd [2]: 11200 pM
koff [2]: 0.0037 s⁻¹
kon [2]: 330000 M⁻¹ s⁻¹
Kd [3]: 7100 pM
koff [3]: 0.0017 s⁻¹
kon [3]: 240000 M⁻¹ s⁻¹
B8: h15H6.v2 LC-W91Y Fab (Fab, V domains shown)
VH: EVQLVQSGAEVKKPGASVKVSCKASGYTFTDSEMHWVRQAPGQGLEWIGGVDPETDGAAYNQKFKGRATITRDTSTSTAYLELSSLRSEDTAVYYCTRGYDYDYALDYWGQGTLVTVSS
VL: DIQMTQSPSSLSASVGDRVTITCRASSSVNFIHWYQQKPGKAPKPLISATSNLASGVPSRFSGSGSGTDFTLTISSLQPEDFATYYCQQYSSNPWTFGQGTKVEIK
notes: Produced as Fab

Kd [11]: 23800 pM
koff [11]: 0.00228 s⁻¹
kon [11]: 96000 M⁻¹ s⁻¹
Kd [12]: 6430 pM
koff [12]: 0.00117 s⁻¹
kon [12]: 182000 M⁻¹ s⁻¹
B9: m19B12 Fab (Fab, V domains shown)
VH: EVKLVESGGGLVEPGGSLKLACVASGFTFSSYIMSWVRQTPEKRLEWVAYISNGGGTTYYSDTIKGRFTISRDNAKNTLYLQMSTLKSEDTAIYFCARQNFRSDGSSMDYWGQGTAVTVSS
VL: NIVVTQSPASLAVSLGQRATISCRASESVDSYGKSFMHWYQQKPGQPPKLLIYLASKLESGVPARFSGSGSRTDFTLTIDPVEADDAATYYCQQNNEDPYTFGGGTKLEIK
notes: Tested in Fab format

Kd [11]: 310 pM
koff [11]: 0.000155 s⁻¹
kon [11]: 506000 M⁻¹ s⁻¹
Kd [12]: 300 pM
koff [12]: 0.000163 s⁻¹
kon [12]: 539000 M⁻¹ s⁻¹
B10: m15H6 Fab (Fab, V domains shown)
VH: QVQLQQSGAELVRPGASVTLSCKASGYTFTDSEMHWVKQTPVHGLEWIGGVDPETDGAAYNQKFKGKATLTADKSSSTAYMELRSLTSEDSAVYYCTRGYDYDYALDYWGQGTSVTVSS
VL: QIVLSQSPAILSASPGEKVTMTCRASSSVNFIHWYQQKPGSSPKPWISATSNLASGVPPRFSGSGSGTSYSLTISRVEAEDAATYYCQQWSSNPWTFGGGTKLEIK
notes: Tested as Fab; also called ml5H6 Fab; m15H6 in Fab format
